Laboratory results taken from patent US20240400715A1 (VIBRANT PHARMA, published 2024).
Numbering of substitutions follows the chain as printed.

T1: human CEA (CEACAM5) on tumor cells (human, UniProt P06731 35-702)
T1 sequence (looked up): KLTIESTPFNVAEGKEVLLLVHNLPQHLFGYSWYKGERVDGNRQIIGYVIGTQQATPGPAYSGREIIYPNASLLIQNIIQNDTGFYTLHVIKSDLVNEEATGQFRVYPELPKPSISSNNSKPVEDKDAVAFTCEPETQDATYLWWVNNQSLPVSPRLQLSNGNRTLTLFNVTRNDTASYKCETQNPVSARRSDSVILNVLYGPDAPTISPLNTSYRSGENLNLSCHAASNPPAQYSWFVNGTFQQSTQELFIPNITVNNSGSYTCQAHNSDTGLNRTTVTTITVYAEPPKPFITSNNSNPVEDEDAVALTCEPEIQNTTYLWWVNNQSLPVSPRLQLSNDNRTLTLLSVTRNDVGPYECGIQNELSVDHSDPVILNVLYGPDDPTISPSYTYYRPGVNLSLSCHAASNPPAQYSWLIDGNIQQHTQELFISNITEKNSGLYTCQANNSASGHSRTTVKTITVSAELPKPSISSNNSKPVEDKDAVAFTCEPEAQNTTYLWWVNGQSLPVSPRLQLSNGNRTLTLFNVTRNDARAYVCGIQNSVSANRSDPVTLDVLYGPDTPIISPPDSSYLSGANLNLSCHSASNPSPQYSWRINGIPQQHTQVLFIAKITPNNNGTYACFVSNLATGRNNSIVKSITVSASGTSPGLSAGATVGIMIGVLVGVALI

B1: bispecific antibody 101 (Fab-Knob+CEA-Hole) (bispecific antibody, human IgG4 S228P, kappa, F234A L235A)
heavy: EVKLLESGGGLVQPKGSLKLSCAASGFTFNTYAMNWVRQAPGKGLEWVARIRSKYNNYATYYADSVKDRFTISRDDSQSILYLQMNNLKTEDTAMYYCVRHGNFGNSYVSWFAYWGQGTLVTVSSASTKGPSVFPLAPCSRSTSESTAALGCLVKDYFPEPVTVSWNSGALTSGVHTFPAVLQSSGLYSLSSVVTVPSSSLGTKTYTCNVDHKPSNTKVDKRVESKYGPPCPPCPAPEAAGGPSVFLFPPKPKDTLMISRTPEVTCVVVDVSQEDPEVQFNWYVDGVEVHNAKTKPREEQFNSTYRVVSVLTVLHQDWLNGKEYKCKVSNKGLPSSIEKTISKAKGQPREPQVYTLPPCQEEMTKNQVSLWCLVKGFYPSDIAVEWESNGQPENNYKTTPPVLDSDGSFFLYSRLTVDKSRWQEGNVFSCSVMHEALHNHYTQKSLSLSL
chain: EVQLVESGGGFVQAGESLTLSCTSSTLTFTPYRMAWYRQAPGKQRDLVADISSGDGRTTNYADFAKGRFTISRDNIKNTVFLRMTNLKPEDTAVYYCNTFVSFVGIARSWGQGTQVTVSSESKYGPPCPPCPAPEAAGGPSVFLFPPKPKDTLMISRTPEVTCVVVDVSQEDPEVQFNWYVDGVEVHNAKTKPREEQFNSTYRVVSVLTVLHQDWLNGKEYKCKVSNKGLPSSIEKTISKAKGQPREPQVCTLPPSQEEMTKNQVSLSCAVKGFYPSDIAVEWESNGQPENNYKTTPPVLDSDGSFFLVSRLTVDKSRWQEGNVFSCSVMHEALHNRFTQKSLSLSL
light: QAVVTQESALTTSPGETVTLTCRSSTGAVTTSNYANWVQEKPDHLFTGLIGGTNKRAPGVPARFSGSLIGDKAALTITGAQTEDEAIYFCALWYSNLWVFGGGTKVEIKRTVAAPSVFIFPPSDEQLKSGTASVVCLLNNFYPREAKVQWKVDNALQSGNSQESVTEQDSKDSTYSLSSTLTLSKADYEKHKVYACEVTHQGLSSPVTKSFNRGEC
notes: Human IgG4 Fc with knob-into-hole, kappa light chain
B2: EGFR-CD3 bispecific antibody 404 (bispecific antibody, human IgG4 S228P, kappa, F234A L235A)
chain: QVQLQESGGGSVQAGGSLKLSCAASGRGFSRYAMGWFRQAPGQDREFVATISWTNSTDYADSVKGRFAISRDNAKNTAYLQMNSLKPEDTAVYYCAADKWASSTRSIDYDYWGQGIQVTVSSESKYGPPCPPCPAPEAAGGPSVFLFPPKPKDTLMISRTPEVTCVVVDVSQEDPEVQFNWYVDGVEVHNAKTKPREEQFNSTYRVVSVLTVLHQDWLNGKEYKCKVSNKGLPSSIEKTISKAKGQPREPQVYTLPPCQEEMTKNQVSLWCLVKGFYPSDIAVEWESNGQPENNYKTTPPVLDSDGSFFLYSRLTVDKSRWQEGNVFSCSVMHEALHNHYTQKSLSLSL
heavy: B1 heavy with Y354C, C359S, W371S, L373A, Y412V, H440R, Y441F
light: B1 light
notes: VHH-knob chain assembled from VHH and knob-Fc with hinge
B3: HER2-CD3 bispecific antibody 504 (bispecific antibody, human IgG4 S228P, kappa, F234A L235A)
chain: QVQLVQSGGGLVQAGGSLRLSCAASGRTFSSYAMAWFRQAPGKEREFVAAISWSGANIYVADSVKGRFTISRDNAKDTVYLQMNSLKPEDTAVYYCAVKLGFAPVEERQYDYWGQGTQVTVSSESKYGPPCPPCPAPEAAGGPSVFLFPPKPKDTLMISRTPEVTCVVVDVSQEDPEVQFNWYVDGVEVHNAKTKPREEQFNSTYRVVSVLTVLHQDWLNGKEYKCKVSNKGLPSSIEKTISKAKGQPREPQVYTLPPCQEEMTKNQVSLWCLVKGFYPSDIAVEWESNGQPENNYKTTPPVLDSDGSFFLYSRLTVDKSRWQEGNVFSCSVMHEALHNHYTQKSLSLSL
heavy: B1 heavy with Y354C, C359S, W371S, L373A, Y412V, H440R, Y441F
light: B1 light
B4: EGFR-CD3 bispecific antibody 401 (bispecific antibody, human IgG4 S228P, kappa, F234A L235A)
heavy: B1 heavy
chain: B2 chain with Y253C, C258S, W270S, L272A, Y311V, H339R, Y340F
light: B1 light
notes: VHH-hole chain assembled from VHH and hole-Fc with hinge
B5: EGFR-CD3 bispecific antibody 404 (bispecific antibody, human IgG4 S228P, kappa, F234A L235A)
chain: B2 chain
heavy: B1 heavy with Y354C, C359S, W371S, L373A, Y412V, H440R, Y441F
light: B1 light
B6: EGFR-CD3 bispecific antibody 401 (bispecific antibody, human IgG4 S228P, kappa, F234A L235A)
heavy: B1 heavy
chain: B2 chain with Y253C, C258S, W270S, L272A, Y311V, H339R, Y340F
light: B1 light

Experiments:
Insulin (abs42019847) = target: T2, Insulin (abs42019847); test: ELISA, insulin coated on the plate, 100 nM antibody, anti-human IgG-HRP
T2 construct: Coated on the plate in the polyspecificity ELISA
Method: (§1) (1) Antigen coating: cardiolipin (Sigma, cat. C0563), keyhole limpet haemocyanin (KLH, Sigma, H8283), LPS (Sigma, L6529), ssDNA (Sigma, D8899), dsDNA (Sigma, D4522) and Insulin (abs42019847) were plated at 50 μg/mL, 5 μg/mL, 10 μg/mL, 1 μg/mL, 1 μg/mL, g/mL, and 50 μL per well, and incubated at 4° C. overnight;
(§2) (4) 50 μl anti-human IgG-HRP conjugate (Sigma, AP113P, 1:8000 dilution) was added to each well; the plate was incubated for 1 h at room temperature and washed 6 times with 0.05% PBST;

[1] = target: T1, human CEA (CEACAM5) on tumor cells; test: cell-based or functional assay
[2] = target: T3, keyhole limpet haemocyanin (KLH, Sigma, H8283) (keyhole limpet, UniProt Q10583 17-3414; Q10584 20-3421, limits assumed); test: ELISA, KLH coated at 5 ug/mL, 100 nM antibody, anti-human IgG-HRP
T3 construct: Bought preparation coated on the plate in the polyspecificity ELISA
Method: as §1, §2

[3] = target: T1, human CEA (CEACAM5) on tumor cells; test: cell-based or functional assay; remark: listed apart in the source
[4] = target: the molecule itself; test: BLI self-interaction: antibody captured on AHQ anti-human Fc sensor, free sites blocked with human IgG, same antibody in solution
Method: The bispecific antibodies were diluted to 1 μM, and the proteins were coupled to the surface of the AHQ sensor chip in PBS, and the signal value was ˜0.8 nm. […] The experimental parameters are as follows: Baseline1: 60s, Loading: 180s, Loading response: 0.8 nm, Baseline2: 180s, Association: 240s, High sensitivity kinetics: 2 Hz.

[5] = target: T4, recombinant tumor antigen human EGFR (ACRO systems, EGR-H5222) (human, UniProt P00533 25-645); test: BLI, antibody captured on AHC sensor, 30 C
T4 construct: bought recombinant protein
From the text: (§3) After the chip captures the bispecific antibodies, it was allowed to bind and dissociate with different concentrations of analytes to obtain the KD value of the interaction. The experimental parameters are as follows: Baseline1: 60s, Loading: 240s, Baseline2: 180s, Association: 240s, Dissociation: 600s, Loading Response: 1.9-2.1 (nm), High sensitivity kinetics: 2 Hz. Kinetic constants were derived based on 1:1 Langmuir binding to obtain equilibrium dissociation constants (KD).

[6] = target: T5, human CD3ε/δ (ACRO systems, CDD-H52W1) (human, UniProt P07766 23-126; P04234 22-105); test: BLI, antibody captured on AHC sensor, 30 C
T5 construct: bought recombinant heterodimer; also called human CD3 epsilon/delta; Human CD3ε/CD3δ

[7] = target: T6, recombinant tumor antigen human HER2 (ERBB2, ACRO systems, HE2-H5212) (human, UniProt P04626 23-652); test: BLI (Octet RED96e), antibody captured on AHC anti-human Fc sensor, HER2 as analyte, 30 C, 1:1 fit
T6 construct: Bought recombinant protein
From the text: as §3

[8] = target: T7, human HER2 on tumor cells (human, UniProt P04626 23-1255); test: cell-based or functional assay
[9] = target: T7, human HER2 on tumor cells; test: cell-based or functional assay; remark: listed apart in the source
[10] = target: T8, human EGFR on tumor cells (human, UniProt P00533 25-1210); test: cell-based or functional assay
[11] = target: T8, human EGFR on tumor cells; test: cell-based or functional assay; remark: listed apart in the source

Binder	Absorbance value (450 nm, polyspecificity ELISA) (Insulin (abs42019847))	Absorbance value (450 nm, polyspecificity ELISA) [2]	BLI-Response (self-interaction signal) [4]	Kd [5]	koff [5]	kon [5]	Kd [6]	koff [6]	kon [6]	EC50 of tumor cell killing, MDA-MB-468 cells with human PBMC (E:T 10:1, 3 days, CCK8) [10]	EC50 of tumor cell killing, NCI-H1573 cells with human PBMC (E:T 10:1, 3 days, CCK8) [10]	EC50 of tumor cell killing, NCI-H1650 cells with human PBMC (E:T 10:1, 3 days, CCK8) [10]	EC50 of tumor cell killing, NCI-H2228 cells with human PBMC (E:T 10:1, 3 days, CCK8) [10]	EC50 of tumor cell killing, SK-OV-3 cells with human PBMC (E:T 10:1, 3 days, CCK8) [10]	EC50 of tumor cell killing, MCF-7 cells with human PBMC (E:T 10:1, 3 days, CCK8) [11]	EC50 of tumor cell killing, N87 cells with human PBMC (E:T 10:1, 3 days, CCK8) [11]	EC50 of tumor cell killing, NCI-H157 cells with human PBMC (E:T 10:1, 3 days, CCK8) [11]	EC50 of tumor cell killing, NCI-H441 cells with human PBMC (E:T 10:1, 3 days, CCK8) [11]	also measured
B1	2.02	1.05	0.21 nm	–	–	–	–	–	–	–	–	–	–	–	–	–	–	–	EC50 of tumor cell killing, MDA-MB-468 cells with human PBMC (E:T 10:1, 3 days, CCK8) [1]: 1160 pM; EC50 of tumor cell killing, NCI-H1573 cells with human PBMC (E:T 10:1, 3 days, CCK8) [1]: 2.87 pM; EC50 of tumor cell killing, SK-OV-3 cells with human PBMC (E:T 10:1, 3 days, CCK8) [1]: 1000 pM; EC50 of tumor cell killing, MCF-7 cells with human PBMC (E:T 10:1, 3 days, CCK8) [3]: 8010 pM; EC50 of tumor cell killing, MDA-MB-453 cells with human PBMC (E:T 10:1, 3 days, CCK8) [3]: 8350 pM; EC50 of tumor cell killing, N87 cells with human PBMC (E:T 10:1, 3 days, CCK8) [3]: 200 pM
B2	–	–	–	2200 pM	0.00238 s⁻¹	1.08e+06 M⁻¹ s⁻¹	2650 pM	0.000469 s⁻¹	177000 M⁻¹ s⁻¹	–	–	–	–	–	–	–	–	–	–
B3	1.51	1.92	–	–	–	–	–	–	–	–	–	–	–	–	–	–	–	–	Kd [7]: 18000 pM; koff [7]: 0.00413 s⁻¹; kon [7]: 230000 M⁻¹ s⁻¹; EC50 of tumor cell killing, MDA-MB-468 cells with human PBMC (E:T 10:1, 3 days, CCK8) [8]: 332 pM; EC50 of tumor cell killing, NCI-H1573 cells with human PBMC (E:T 10:1, 3 days, CCK8) [8]: 37.8 pM; EC50 of tumor cell killing, NCI-H1650 cells with human PBMC (E:T 10:1, 3 days, CCK8) [8]: 1620 pM; EC50 of tumor cell killing, NCI-H2228 cells with human PBMC (E:T 10:1, 3 days, CCK8) [8]: 2430 pM; EC50 of tumor cell killing, SK-OV-3 cells with human PBMC (E:T 10:1, 3 days, CCK8) [8]: 10 pM; EC50 of tumor cell killing, MCF-7 cells with human PBMC (E:T 10:1, 3 days, CCK8) [9]: 1220 pM; EC50 of tumor cell killing, MDA-MB-453 cells with human PBMC (E:T 10:1, 3 days, CCK8) [9]: 4060 pM; EC50 of tumor cell killing, N87 cells with human PBMC (E:T 10:1, 3 days, CCK8) [9]: 1290 pM; EC50 of tumor cell killing, NCI-H157 cells with human PBMC (E:T 10:1, 3 days, CCK8) [9]: 10800 pM; EC50 of tumor cell killing, NCI-H441 cells with human PBMC (E:T 10:1, 3 days, CCK8) [9]: 119 pM
B4	–	–	–	2070 pM	0.00201 s⁻¹	969000 M⁻¹ s⁻¹	2710 pM	0.000491 s⁻¹	181000 M⁻¹ s⁻¹	–	–	–	–	–	–	–	–	–	–
B5	1.08	1.06	0.062 nm	–	–	–	–	–	–	0.0158 pM	6.94 pM	67.7 pM	73.4 pM	9.95 pM	84 pM	1470 pM	17700 pM	9.08 pM	–
B6	1.01	0.96	–	–	–	–	–	–	–	0.0208 pM	5.83 pM	98.6 pM	114 pM	11.3 pM	206 pM	1310 pM	10000 pM	5.38 pM	–
